Blank lines part the entries; values can stand above or below the binder they belong to.
What was measured:
[1] = molecular target: T1, human LAG-3 on 293 cells overexpressing human LAG-3 (293-LAG-3) (human, UniProt P18627 23-525); assay: FACS on 293-LAG-3 cells, PE anti-human Fc detection
T1 construct: whole, on cells; also called LAG-3 on the cell surface
T1 sequence (looked up): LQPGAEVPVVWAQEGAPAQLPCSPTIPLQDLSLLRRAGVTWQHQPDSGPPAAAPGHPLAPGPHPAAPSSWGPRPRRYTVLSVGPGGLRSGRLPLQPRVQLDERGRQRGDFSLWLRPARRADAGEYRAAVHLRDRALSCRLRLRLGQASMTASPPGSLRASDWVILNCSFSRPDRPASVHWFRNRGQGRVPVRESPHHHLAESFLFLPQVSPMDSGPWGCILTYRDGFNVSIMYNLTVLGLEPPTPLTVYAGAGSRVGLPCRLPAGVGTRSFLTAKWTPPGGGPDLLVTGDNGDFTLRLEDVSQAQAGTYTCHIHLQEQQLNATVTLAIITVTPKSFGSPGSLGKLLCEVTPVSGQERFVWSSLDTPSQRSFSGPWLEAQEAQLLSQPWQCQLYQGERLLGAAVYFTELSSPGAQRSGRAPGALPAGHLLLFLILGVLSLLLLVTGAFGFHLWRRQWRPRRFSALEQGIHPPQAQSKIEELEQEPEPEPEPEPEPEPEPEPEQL
Description: (§1) 2) Detection: The cell suspension was centrifuged at 400 g on a centrifuge for 5 min to remove the cell culture medium. The serial dilutions of the bispecific antibody IGN-LP disclosed herein and anti-humanized Nb-Fc and anti-LAG-3 antibody ADI31853 as controls were added to the U-shaped plate at 100 μL each, and then the cells were resuspended and put onto the ice to stand for 30 min. The cell suspension was centrifuged at 400 g for 5 min to remove the supernatant, and the cells were washed with PBS to remove the unbound antibodies. The resulting cell suspension was centrifuged at 400 g for 5 min to remove PBS. 100 μL of the solution of PE-conjugated anti-human Fc antibody (Jackson Immuno Research) diluted at a ratio of 1:200 was added to each well, and the cells were incubated in the dark on the ice for 30 min. Then the cell suspension was centrifuged at 400 g for 5 min to remove the supernatant. The cells were washed with PBS once to remove the unbound PE-conjugated anti-human Fc antibody. Then the cells were resuspended with 100 μL of PBS, and the binding of the antibody to cells was assayed by FACS.

human LAG-3-his [2] = molecular target: T2, human LAG-3-his (human, UniProt P18627 23-450); assay: ForteBio Octet BLI; antibody on AHQ tip, human LAG-3-His 100 nM in solution
T2 construct: Bought reagent; also called LAG-3 protein; not shown: His tag
T2 sequence (looked up): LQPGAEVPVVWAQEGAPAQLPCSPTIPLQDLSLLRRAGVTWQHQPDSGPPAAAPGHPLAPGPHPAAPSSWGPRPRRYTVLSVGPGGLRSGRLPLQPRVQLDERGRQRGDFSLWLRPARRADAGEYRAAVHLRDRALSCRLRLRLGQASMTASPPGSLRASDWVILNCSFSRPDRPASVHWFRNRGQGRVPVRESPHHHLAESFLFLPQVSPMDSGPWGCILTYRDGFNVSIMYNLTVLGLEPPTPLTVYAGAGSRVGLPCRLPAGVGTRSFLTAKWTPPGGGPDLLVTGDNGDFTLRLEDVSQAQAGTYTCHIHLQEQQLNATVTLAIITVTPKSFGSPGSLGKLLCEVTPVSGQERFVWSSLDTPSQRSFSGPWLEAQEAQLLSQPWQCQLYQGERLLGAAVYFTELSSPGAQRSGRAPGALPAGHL
Description: (§2) The equilibrium dissociation constant (KD) for the binding of the prepared exemplary anti-LAG-3/PD-L1 bispecific antibody IGN-LP disclosed herein to LAG-3 and PD-L1 was determined by a kinetic binding assay using the Octet system manufactured by ForteBio. A ForteBio affinity assay was performed according to the method reported in the literature (Estep, P, et al., High throughput solution Based measurement of antibody-antigen affinity and epitope binning MAbs, 2013, 5(2): p. 270-278). Briefly:
(§3) The anti-human IgG Fc biosensor AHQ was immersed in each well containing the antibody solution at room temperature for 600 s to load the samples. The sensor was then washed in SD buffer until it returned to the baseline, and then immersed in a well containing 100 μL of the antigen solution to monitor the binding of the antibody to the antigen. The sensor was then transferred to a well containing 100 uL of the SD buffer to monitor the antibody dissociation (the operation procedures were set as: Baseline, Loading ˜1 nm, Baseline, Association and Dissociation, each running for a time depending on the binding and dissociation rates of the samples). The rotation speed was 400 rpm and the temperature was 30° C. […]

human LAG-3-his [3] = molecular target: T2, human LAG-3-his; assay: ForteBio Octet BLI; antibody on AHQ tip, human LAG-3-His 100 nM in solution, monovalent
Description: as §2, §3

[4] = molecular target: T3, human PD-L1 on CHOS cells overexpressing PD-L1 (CHOS-PD-L1) (human, UniProt Q9NZQ7 19-290); assay: FACS on CHOS-PD-L1 cells, PE anti-human Fc detection
T3 construct: whole, on cells; also called CHO-PD-L1; PD-L1 on the cell surface
Description: as §1

human PD-L1-his [5] = molecular target: T4, human PD-L1-his (human, UniProt Q9NZQ7 19-238); assay: ForteBio Octet BLI; antibody on AHQ tip, human PD-L1-His 100 nM in solution
T4 construct: Bought reagent; also called PD-L1 protein; not shown: His tag
Description: as §2, §3

human PD-L1-his [6] = molecular target: T4, human PD-L1-his; assay: ForteBio Octet BLI; antibody on AHQ tip, human PD-L1-His 100 nM in solution, monovalent
Description: as §2, §3

T4 sequence (Q9NZQ7 19-238 limits assumed): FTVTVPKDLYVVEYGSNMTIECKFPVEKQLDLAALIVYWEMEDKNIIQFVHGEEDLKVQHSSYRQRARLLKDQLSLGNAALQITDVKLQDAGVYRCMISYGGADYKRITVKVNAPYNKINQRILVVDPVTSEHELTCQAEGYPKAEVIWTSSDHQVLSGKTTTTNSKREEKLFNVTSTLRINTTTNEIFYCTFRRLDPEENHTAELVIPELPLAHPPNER
T3 sequence (Q9NZQ7 19-290): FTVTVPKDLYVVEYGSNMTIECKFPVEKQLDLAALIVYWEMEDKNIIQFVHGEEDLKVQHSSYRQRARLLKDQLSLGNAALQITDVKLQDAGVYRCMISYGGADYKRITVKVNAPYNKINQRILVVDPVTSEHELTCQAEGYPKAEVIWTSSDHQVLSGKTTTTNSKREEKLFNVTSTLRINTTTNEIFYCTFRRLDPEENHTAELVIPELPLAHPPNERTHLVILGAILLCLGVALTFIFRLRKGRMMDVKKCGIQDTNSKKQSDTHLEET

EC50 [1]: 0.504 nM | koff (human LAG-3-his [2]): 0.0002 s⁻¹ | kon (human LAG-3-his [2]): 128000 M⁻¹ s⁻¹ | Kd (human LAG-3-his [3]): 1.56 nM
B1: anti-LAG-3 antibody ADI-31853 (antibody, human IgG1, kappa, L234A L235A, V domains shown)
VH: QLQLQESGPGLVKPSETLSLTCTVSGGSIYSESYYWGWIRQPPGKGLEWIGSIVYSGYTYYNPSLKSRVTISVDTSKNQFSLKLSSVTAADTAVYYCARVRTWDAAFDIWGQGTMVTVSS
VL: DIQMTQSPSSLSASVGDRVTITCQASQDISNYLNWYQQKPGKAPKLLIYDASNLETGVPSRFSGSGSGTDFTFTISSLQPEDIATYYCQQVLELPPWTFGGGTKVEIKR
notes: also called parental anti-LAG-3 antibody

EC50 [4]: 1.2 nM | koff (human PD-L1-his [5]): 0.00356 s⁻¹ | kon (human PD-L1-his [5]): 310000 M⁻¹ s⁻¹ | Kd (human PD-L1-his [6]): 11.5 nM
B2: anti-PD-L1 humanized Nb-Fc antibody (Fc fusion)
chain: QVQLQESGGGLVQPGGSLRLSCAASAYTISRNSMGWFRQAPGKGLEGVAAIESDGSTSYSDSVKGRFTISLDNSKNTLYLEMNSLRAEDTAVYYCAAPKVGLGPRTALGHLAFMTLPALNYWGQGTLVTVSS
notes: The VHH is inferred from the words 'parent antibody' / 'parental anti-PD-L1 antibody'; also called anti-humanized Nb-Fc; parental anti-PD-L1 antibody; not shown: the antibody was obtained according to ZL201710657665.3

— patent US20220112284A1 (Innovent, published 2022)
